Test results as given in PMC9601805, “Characterization of the Escherichia coli pyridoxal 5′‐phosphate homeostasis protein (YggS): Role of lysine residues in PLP binding and protein stability” (Protein Science : A Publication of the Protein Society, 2022).
Positions count from the first letter of the chain named. Names may count otherwise.

B1: WT: recombinant His-tagged wild-type E. coli YggS, the PLP homeostasis protein (PLPHP) (protein)
chain: MNDIAHNLAQVRDKISAAATRCGRSPEEITLLAVSKTKPASAIAEAIDAGQRQFGENYVQEGVDKIRHFQELGVTGLEWHFIGPLQSNKSRLVAEHFDWCHTIDRLRIATRLNDQRPAELPPLNVLIQINISDENSKSGIQLAELDELAAAVAELPRLRLRGLMAIPAPESEYVRQFEVARQMAVAFAGLKTRYPHIDTLSLGMSDDMEAAIAAGSTMVRIGTAIFGARDYSKK
modifications: PLP covalently bound to Lys36 through a Schiff base linkage; left off: His-tag, end not stated, kept
B2: K36A/K38A/K137A: E. coli YggS triple lysine variant (protein)
chain: B1 chain with K36A, K38A, K137A
modifications: left off: His-tag, C-terminal, state not stated
notes: E. coli YggS triple lysine variant
B3: K137A: E. coli YggS single lysine variant K137A (protein)
chain: B1 chain with K137A
modifications: left off: His-tag, C-terminal, state not stated
B4: ΔK233/K234: E. coli YggS variant lacking the last two C-terminal residues K233 and K234 (protein)
chain: MNDIAHNLAQVRDKISAAATRCGRSPEEITLLAVSKTKPASAIAEAIDAGQRQFGENYVQEGVDKIRHFQELGVTGLEWHFIGPLQSNKSRLVAEHFDWCHTIDRLRIATRLNDQRPAELPPLNVLIQINISDENSKSGIQLAELDELAAAVAELPRLRLRGLMAIPAPESEYVRQFEVARQMAVAFAGLKTRYPHIDTLSLGMSDDMEAAIAAGSTMVRIGTAIFGARDYS
modifications: left off: His-tag, N-terminal, state not stated

Tests used:
E. coli ΔyggS = assay: 4dPN sensitivity assay and complementation by YggS variants in trans; assay type: cell-based, Escherichia coli; conditions: for complementation of the 4dPN sensitivity phenotype of ΔyggS: expression in trans, M9 0.4% glucose, 1 μM PN, 20 μl of 25 mM 4dPN
Experimental: Bacteria were grown in Luria‐Bertani (LB; Tryptone 10 g L^− 1, Yeast extract 5 g L^− 1, NaCl 10 g L^− 1) or M9 minimal medium (Cold Spring Harbor Protocols, Cold Spring Harbor, NY) at 37°C, unless otherwise specified. Growth media were solidified with agar (16 g L^− 1; Fisher Scientific) for the preparation of plates. 4dPN toxicity assays were performed on thin (20 ml) M9 minimal medium plates containing 0.4% glucose (carbon source), ampicillin (100 μg ml^−1), 1 μM PN, and 0.02% or 0.2% arabinose when appropriate.
Wild‐type yggS was amplified by PCR with primers DH596 and DH598 from E. coli BW25113 and cloned in pBAD24 using restriction sites SphI and NcoI to give pBY291.3. The pBY291.3 plasmid and its derivatives were then used as templates with the NEB Q5 Site‐Directed Mutagenesis Kit and the primer pairs indicated in Table S4 to introduce site‐directed residue mutant constructs. All constructs were verified by sequencing and transformed into E. coli wild‐type (BW25113) and ΔyggS (VDC6594) electrocompetent cells for use in physiological studies. Plasmid transformations were performed following standard procedures and protein expression from each construct was confirmed by SDS‐PAGE and western blot analysis.
Three isolated colonies of each strain were inoculated into 5 ml LB Amp 200 μg ml^− 1 and incubated at 37°C and 200 rpm overnight. Overnight cultures were diluted 1:500 into 5 ml fresh LB Amp 200 μg ml^− 1 ± 0.02% or 0.2% arabinose and grown at 37°C, shaking. Once cultures reached midlog growth (OD600 of 0.4–0.7) samples were taken from each culture for western blot analysis (below) then cells were again incubated until stationary growth was reached (~6 hr). Cells were harvested by centrifugation then washed twice with and resuspended in 1x PBS. Optical density of washed cells was measured at 600 nm in 1 ml cuvettes (Fisher Scientific) using a BioSpec‐mini DNA/RNA/Protein analyzer (Shimadzu Biotech) and each strain was normalized to an OD600 of 0.006 in 3 ml 1x PBS. […]

apo‐YggS [1] = target: T1, apo‐YggS (Escherichia coli, UniProt P67080); assay: biochemical; assay type: binding
T1 construct: made in house; host or cells: E. coli HMS174(DE3)
Experimental: Equilibrium binding analyses were carried out by measuring the decrease of protein intrinsic fluorescence observed upon the addition of increasing PLP concentrations to a fixed concentration of apo‐YggS (Figure 1b).
Dissociation constants were calculated from saturation curves obtained measuring the protein fluorescence emission intensity as a function of increasing PLP concentration. […] Fluorescence emission spectra were recorded from 310 to 450 nm upon excitation at 280 nm. Excitation and emission slits were set at 3 and 5 nm, respectively.

apo‐YggS [2] = target: T1, apo‐YggS; assay: biochemical; assay type: binding; conditions: B6 vitamers and analogs
Experimental: The thermal stability of holo‐ and apo‐YggS forms was analyzed by differential scanning fluorimetry (DSF).
Differential scanning fluorimetry (DSF) assays were performed on a Real Time PCR Instrument (CFX Connect Real Time PCR system, Bio‐Rad, Hercules, CA). In a typical experiment, 2 μM WT and variant apo‐YggS forms in 50 mM NaHEPES, pH 7.5, 50 mM NaCl, and Sypro Orange (5x, Thermo Scientific) were mixed with various ligands (total volume of 25 μl) in a 96‐well PCR plate. […] All samples were run in triplicate. Denaturation profiles were analyzed as described in Nardella et al.[40]

[3] = Differential scanning fluorimetry (DSF), apparent Tm of YggS forms; assay type: physicochemical; conditions: for T m (°C) Apo +2 μM PLP: 2 μM protein + 2 μM (equimolar) PLP; for T m (°C) Apo + 300 μM PLP: 2 μM protein + 300 μM PLP; for T m (°C) Apo: apo-form, 2 μM protein, no PLP
Experimental: Differential scanning fluorimetry (DSF) assays were performed on a Real Time PCR Instrument (CFX Connect Real Time PCR system, Bio‐Rad, Hercules, CA). In a typical experiment, 2 μM WT and variant apo‐YggS forms in 50 mM NaHEPES, pH 7.5, 50 mM NaCl, and Sypro Orange (5x, Thermo Scientific) were mixed with various ligands (total volume of 25 μl) in a 96‐well PCR plate. Fluorescence was measured from 25°C to 95°C in 0.4°C/30 s steps (excitation 450–490 nm; detection 560–580 nm). All samples were run in triplicate. Denaturation profiles were analyzed as described in Nardella et al.[40]

apo‐eSHMT = apo‐eSHMT (Escherichia coli, UniProt P0A825); conditions: for PLP transfer kinetics compared with WT YggS: transfer to apo-SHMT
Chain of apo‐eSHMT (P0A825 whole entry): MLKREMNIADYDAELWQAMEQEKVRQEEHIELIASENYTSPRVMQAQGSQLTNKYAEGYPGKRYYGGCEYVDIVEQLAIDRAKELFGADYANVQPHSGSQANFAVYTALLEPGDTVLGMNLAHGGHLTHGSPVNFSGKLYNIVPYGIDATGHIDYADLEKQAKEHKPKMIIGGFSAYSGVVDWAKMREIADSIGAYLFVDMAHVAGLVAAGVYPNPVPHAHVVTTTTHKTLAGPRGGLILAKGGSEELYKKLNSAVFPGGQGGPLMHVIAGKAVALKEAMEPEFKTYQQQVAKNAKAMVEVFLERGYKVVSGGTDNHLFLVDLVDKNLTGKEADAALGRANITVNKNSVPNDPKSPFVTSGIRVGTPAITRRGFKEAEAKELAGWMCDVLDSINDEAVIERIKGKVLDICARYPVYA
Experimental: We set up a novel in vitro discontinuous assay in which PLP transfer from holo‐YggS to the apo‐form of eSHMT could be followed (see Section 4 for details). In this assay, the increase in SHMT activity is measured as PLP dissociates from holo‐YggS and binds to apo‐SHMT, forming the catalytically active holo‐SHMT. […] The binding kinetics of free PLP to either apo‐YggS or apo‐SHMT was measured by manually mixing 20 μM free PLP with 20 μM of protein, observing the formation of the internal aldimine at 420 nm.
WT Holo‐YggS (20 μM with respect to PLP) was mixed with 20 μM apo‐eSHMT in 50 mM NaHEPES buffer at pH 7.6.

[4] = PLP binding equilibrium of YggS WT and variant forms, intrinsic fluorescence change; conditions: E. coli YggS form 0.1 μM, 50 mM NaHEPES pH 7.6, 25°C, excitation 280 nm; mean ± SEM; read-out: K D (nM) of the PLP binding equilibrium
Experimental: Analyses took advantage of YggS intrinsic fluorescence decrease observed upon binding of PLP. Dissociation constants were calculated from saturation curves obtained measuring the protein fluorescence emission intensity as a function of increasing PLP concentration. Fluorescence emission measurements were carried out at 25°C, in 50 mM NaHEPES buffer at pH 7.6 with a FluoroMax‐3 Jobin Yvon Horiba spectrofluorometer, using a 1‐cm path length quartz cuvette. All analyzed YggS forms were used at a final subunit concentration of 0.1 μM. Fluorescence emission spectra were recorded from 310 to 450 nm upon excitation at 280 nm. Excitation and emission slits were set at 3 and 5 nm, respectively. Emission fluorescence values between 330 and 340 nm were averaged and analyzed using the following quadratic equation to obtain K D value: (1) Frel=Finf−F0×PLP+[YggS]+KD−PLP+[YggS]+KD^2−4[YggS]PLP/2/[YggS]+F0

[5] = Covalent (Schiff base) PLP binding judged by absorption spectra; conditions: ~416–420 nm band
Experimental: Our strategy was to start from the K36A variant and gradually add further variations so as to obtain all possible combinations of double, triple, and quadruple variants. Variations of the last two residues at the C‐terminal end of the protein, K233 and K234, were always introduced together and are therefore considered as a single K233A/K234A variation.
All spectroscopic measurements were carried out at 20°C in 20 mM NaHEPES pH 7.5. UV–visible spectra were recorded with a Hewlett‐Packard 8453 diode‐array spectrophotometer. Far‐UV (190–250 nm) and Near‐UV–visible (250–500 nm) CD spectra were measured with a Jasco 710 spectropolarimeter equipped with a DP 520 processor using 0.1‐cm (far‐UV) or 1‐cm path length quartz cuvettes and results were expressed as ellipticity [Θ]. Absorption spectra of WT and variant forms were deconvoluted into their component bands using Metzler's band‐shape analysis method.[22]

[6] = 20 μM holo-YggS, 20 μM apo-SHMT, 37°C

Row | Molecule | complementation of the 4dPN sensitivity phenotype of ΔyggS (E. coli ΔyggS) | T m (°C) Apo +2 μM PLP [3] | T m (°C) Apo + 300 μM PLP [3] | T m (°C) Apo [3] | Kd [4] | PLP transfer kinetics compared with WT YggS (apo‐eSHMT) | capability to bind PLP covalently as a Schiff base [5] | also measured
1 | Cc1ncc(CO)c(C)c1O [4dPN, 4‐deoxypyridoxine, reference compound] | – | – | – | – | – | – | – | 4dPN sensitivity (ring of growth inhibition) (E. coli ΔyggS; 20 μl of 25 mM 4dPN in central well, M9 minimal medium with 1 μM PN): clear 4dPN sensitivity phenotype; change in fluorescence emission attributable to binding (apo‐YggS [1]; WT apo-YggS): could only be detected with PL and PNP
2 | Cc1ncc(CO)c(C=O)c1O [PL, pyridoxal] | – | – | – | – | – | – | – | Kd (apo‐YggS [1]; dissociation constant (K D), ligand binding to WT apo-YggS, fluorescence change, 50 mM NaHEPES pH 7.6): 57000 ± 20000 nM; binding to apo-YggS by DSF (apo‐YggS [2]): only PL and PNP bind
3 | B1 | complemented | 70.8 ± 0.8 °C | 82.2 ± 0.1 °C | 55.1 ± 0.3 °C | 1.3 ± 0.8 nM | – | – | T m (°C) Apo +2 μM PLP ([3]; listed as apo‐YggS): 70 °C; T m (°C) Apo + 300 μM PLP ([3]; listed as apo‐YggS): about 82 °C; T m (°C) Apo ([3]; listed as apo‐YggS): 56 °C; PLP initially bound to YggS transferred to SHMT at equilibrium (apo‐eSHMT; [6]): approximately 15%; time to reach PLP transfer equilibrium (apo‐eSHMT; [6]): about 30 min; rate constant of PLP transfer (apo‐eSHMT; 20 μM holo-YggS, 20 μM apo-SHMT, 37°C, 50 mM NaHEPES pH 7.6): 0.14 ± 0.02 min⁻¹
4 | B2 | – | 69.4 ± 0.1 °C | 75.2 ± 1.2 °C | 68.9 ± 0.2 °C | 43 ± 19 nM | faster and much more extensive transfer of PLP | – | –
5 | B3 | failed to complement | 71.5 ± 0.1 °C | 82.5 ± 0.1 °C | 60.3 ± 0.1 °C | 1.8 ± 1.9 nM | same transfer kinetics as that observed with WT YggS | able to bind PLP as a Schiff base | –
6 | B4 | – | 73.1 ± 0.3 °C | 84.0 ± 0.4 °C | 61.4 ± 0.8 °C | 2.8 ± 0.7 nM | – | able to bind PLP as a Schiff base | –
